Reference: article PMC6222199, “Regulatory Targets of the Response Regulator RR_1586 from Clostridioides difficile Identified Using a Bacterial One-Hybrid Screen”

Biological target: RR_1586 D50G (Clostridioides difficile R20291, UniProt A0A9R0BKD1 1-223, D50G)
Assay: EMSA; 10 mM Mg2+; phosphoramidate; EMSA: 5 pmol DNA in 10 ul (500 nM), 10 mM Tris pH 8, 50 mM NaCl, 10 mM MgCl2, room temperature 10 min; 10% PAGE 0.5x TBE on ice, ethidium bromide
Settings: protein: recombinant; tags: His6; chain copies: 2; blunt

B1: CDR20291_1583 site (dsDNA)
DNA 1: AGGAATTAAGGAGCAATTAAATGATG
DNA 2: CATCATTTAATTGCTCCTTAATTCCT
Q: Does B1 bind?
A: binds
